The values below come from US20260356924 (published 2026).

Broadly, the EC50 is the midpoint of the concentration-response curve. The low end stands for a more potent agent, the high end for a less potent agent. As a reminder, the Kd is the equilibrium constant for the complex coming apart.

First the molecules themselves.
T1: Tau409-426 pS422 peptide (human)
T1 chain: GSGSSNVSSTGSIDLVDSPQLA

B1: hV0022 control (antibody, V domains shown)
VH: QVQLQQPGTELVKPGSSVNLSCKASGFTFTRYWMHWVKERPGHGLEWIGNINPNNGGTDFNEKFKNKATLTVHKSSTTVFIQLSSLTSEDSAVYYCARGTGTGAMDYWGQGTSVTVSS
VL: DVVMTQTPLSLPVSLGDQASISCRSSQSLVHNNGITYLYWYLQKPGQSPKLLIYRVSNRFSGVPDRFGGSGSGTDFTLKISRVEAEDLGVYFCFQGTHVPRTFGGGTKLEIK
modifications: enriched paired helical filament tau, hyperphosphorylated
B2: Ab5 (antibody, V domains shown)
VH: QVQLVQSGAEVKKPGASVKVSCKASGFTFTRYWMHWVKERPGQGLEWMGNINPNNGGTDFNEKFKNRVTMTVHKSTSTVFIQLSSLRSEDTAVYYCARGTGTGAMDYWGQGTSVTVSS
VL: DIVMTQTPLSSPVTLGQPASISCRSSQSLVHNNGITYLYWYQQRPGQPPRLLIYRVSNRFSGVPDRFSGSGAGTDFTLKINRVEAEDVGVYFCFQGTHVPRTFGQGTKLEIK
modifications: enriched paired helical filament tau, hyperphosphorylated
B3: Ab8 (antibody, V domains shown)
VH: QVQLVQSGAEVKKSGASVKVSCKASGFTFTRYWMHWVRQAPGQGLEWIGNINPNNGGTDFNEKFKNRVTLIRDTSTTTVFIQLTSLTSEDSAVYYCARGTGTGAMDYWGQGTLVTVSS
VL: B2 VL with I2V, T7S, S11L, P48S, A72S, N81S, F92Y
modifications: enriched paired helical filament tau, hyperphosphorylated
B4: Ab4 (antibody, V domains shown)
VH: B2 VH
VL: DIVMTQSPLSLSVTPGQPASISCRSSQSLVHNNGITYLYWYLQKPGQSPQLLIYRVSNRFSGVPDRFSGSGSGTDFTLKISRVEAEDVGVYYCFQGTHVPRTFGQGTKVEIK
modifications: enriched paired helical filament tau, hyperphosphorylated
B5: V0004 (antibody, V domains shown)
VH: QVQLQQPGAELVKPGASVKLSCKASDYTFTNYWMHWVKQRPGRGLEWIGRIDPNSGGTRYNEKFKNKATLTVDKPSSTAYMHLSSLTSEDSAVYYCAGDFDVWGTGTTVTVSS
VL: DIQMTQSPASLSASVGETVTITCRASGNIHNYLAWYQQRQGKSPQLLVYNAKTLPDGVPSRFSGSGSGTQYSLKINSLQPEDFGSYCCQHFWSTPLTFGAGTKLELK
modifications: immunopurified paired helical filament tau, hyperphosphorylated
B6: Ab10 (antibody, V domains shown)
VH: EVQLVQSGAEVKKPGSSVKVSCKASGFTFTRYWMHWVKERPGHGLEWIGNINPNNGGTDFNEKFKNRVTMTVHKSITTAYMELSRLTSDDSAVYYCARGTGTGAMDYWGQGTLVSVSS
VL: B2 VL
B7: Ab3 (antibody, V domains shown)
VH: B6 VH
VL: B4 VL with I2V, S12P, P15L, L42Q, K44R, Q50R, V109L
B8: Ab5 (antibody, V domains shown)
VH: B2 VH
VL: B2 VL
B9: Ab9 (antibody, V domains shown)
VH: B6 VH
VL: B4 VL
B10: Ab2 (antibody, V domains shown)
VH: B2 VH with Q6E, Q43H, M70I, T76A, V79A, F80Y, I81M, Q82E, S113T
VL: B4 VL with I2V, S12P, P15L, L42Q, K44R, Q50R, V109L
B11: Ab11 (antibody, V domains shown)
VH: B2 VH
VL: B4 VL with I2V, S12P, P15L, L42Q, K44R, Q50R, V109L
B12: Ab6 (antibody, V domains shown)
VH: B2 VH with Q6E, Q43H, M70I, T76A, V79A, F80Y, I81M, Q82E, S113T
VL: B4 VL
B13: Ab7 (antibody, V domains shown)
VH: B6 VH with E1Q, S16A, K38R, T77S, R85S, T87R, S115T
VL: B4 VL with I2V, S12P, P15L, L42Q, K44R, Q50R, V109L
B14: Ab4 (antibody, V domains shown)
VH: B2 VH
VL: B4 VL
B15: Ab1 (antibody, V domains shown)
VH: B3 VH
VL: B4 VL
B16: Ab8 (antibody, V domains shown)
VH: B3 VH
VL: B4 VL with I2V, S12P, P15L, L42Q, K44R, Q50R, V109L
B17: Ab3 (antibody, V domains shown)
VH: B6 VH
VL: B4 VL with I2V, S12P, P15L, L42Q, K44R, Q50R, V109L
modifications: non-phosphorylated recombinant tau
B18: Ab7 (antibody, V domains shown)
VH: B6 VH with E1Q, S16A, K38R, T77S, R85S, T87R, S115T
VL: B4 VL with I2V, S12P, P15L, L42Q, K44R, Q50R, V109L
modifications: non-phosphorylated recombinant tau
B19: Ab11 (antibody, V domains shown)
VH: B2 VH
VL: B4 VL with I2V, S12P, P15L, L42Q, K44R, Q50R, V109L
modifications: non-phosphorylated recombinant tau
B20: Ab8 (antibody, V domains shown)
VH: B3 VH
VL: B4 VL with I2V, S12P, P15L, L42Q, K44R, Q50R, V109L
modifications: non-phosphorylated recombinant tau
B21: Ab6 (antibody, V domains shown)
VH: B2 VH with Q6E, Q43H, M70I, T76A, V79A, F80Y, I81M, Q82E, S113T
VL: B4 VL
modifications: non-phosphorylated recombinant tau
B22: Ab4 (antibody, V domains shown)
VH: B2 VH
VL: B4 VL
modifications: non-phosphorylated recombinant tau
B23: Ab9 (antibody, V domains shown)
VH: B6 VH
VL: B4 VL
modifications: non-phosphorylated recombinant tau
B24: Ab1 (antibody, V domains shown)
VH: B3 VH
VL: B4 VL
modifications: non-phosphorylated recombinant tau
B25: Ab5 (antibody, V domains shown)
VH: B2 VH
VL: B2 VL
modifications: non-phosphorylated recombinant tau
B26: Ab10 (antibody, V domains shown)
VH: B6 VH
VL: B2 VL
modifications: non-phosphorylated recombinant tau
B27: Ab2 (antibody, V domains shown)
VH: B2 VH with Q6E, Q43H, M70I, T76A, V79A, F80Y, I81M, Q82E, S113T
VL: B4 VL with I2V, S12P, P15L, L42Q, K44R, Q50R, V109L
modifications: non-phosphorylated recombinant tau
B28: V0023 (antibody, V domains shown)
VH: QVQLQQPGTELVKPGASVKLSCKASGYTFTIFWMHWVKQRPGHGLEWIGKINPNNGGGDYNEKFKSKATLTVDKSSTTAYLQLSSLTSEDSAVYYCARGTGTGAMDYWGQGTSVTVSS
VL: B1 VL with Q18H, N32S, Y37H, K44R, S48T, G68S, R82S, K112E
modifications: enriched paired helical filament tau, hyperphosphorylated

Substitutions are numbered along the chain they refer to.

T2 sequence (P10636 2-758): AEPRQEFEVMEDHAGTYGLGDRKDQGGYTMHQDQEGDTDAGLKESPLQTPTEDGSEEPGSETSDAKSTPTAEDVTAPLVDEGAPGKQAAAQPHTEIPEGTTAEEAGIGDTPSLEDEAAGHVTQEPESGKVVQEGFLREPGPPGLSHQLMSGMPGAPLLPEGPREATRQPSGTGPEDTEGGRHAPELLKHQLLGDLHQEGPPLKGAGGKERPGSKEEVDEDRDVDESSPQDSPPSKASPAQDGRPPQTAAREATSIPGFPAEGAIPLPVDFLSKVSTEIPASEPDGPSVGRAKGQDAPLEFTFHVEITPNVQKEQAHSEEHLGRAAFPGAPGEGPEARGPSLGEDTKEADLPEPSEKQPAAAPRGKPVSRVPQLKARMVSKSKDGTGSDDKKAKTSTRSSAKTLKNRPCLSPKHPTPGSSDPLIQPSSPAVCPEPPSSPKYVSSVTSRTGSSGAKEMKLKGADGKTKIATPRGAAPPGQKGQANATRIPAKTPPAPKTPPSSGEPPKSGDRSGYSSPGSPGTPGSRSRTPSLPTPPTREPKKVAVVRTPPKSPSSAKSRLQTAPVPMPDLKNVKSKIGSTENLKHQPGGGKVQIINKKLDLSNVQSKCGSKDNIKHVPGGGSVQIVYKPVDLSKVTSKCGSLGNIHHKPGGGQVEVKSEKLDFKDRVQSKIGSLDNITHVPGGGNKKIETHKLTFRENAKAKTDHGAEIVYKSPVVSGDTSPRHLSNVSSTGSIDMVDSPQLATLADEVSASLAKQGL

The first experiment concerns the target T2, ePHF (human, UniProt P10636). The experiment in a line: ELISA. Background: In an ELISA, binding on a coated surface is turned into a signal by an enzyme label.
Take B1: it took 0.08 nM to reach a half-maximal effect (EC50).

Take B2: it took 0.19 nM to reach a half-maximal effect (EC50). Molecule B3 displayed an EC50 of 0.17 nM. The EC50 values of the last two molecules are within 1.5-fold of each other.

As to B4, the EC50 worked out at 0.18 nM. The EC50 values of the last two molecules are within 1.5-fold of each other.

The target in a further experiment is iPHF (human, UniProt P10636). The experiment in a line: BLI. On the technique in general: In BLI a coated tip is dipped into the sample, and binding shifts an interference pattern.
Sequence of iPHF (P10636 2-758): as above
B5 yielded a Kd of 20 nM.

In a further experiment the target is T1, Tau409-426 pS422 peptide. The experiment in a line: SPR. In general terms: Surface plasmon resonance follows binding to a sensor surface in real time, without labels.
In the case of B6, the Kd is 0.0436 nM. With B7, the Kd was determined as 0.0457 nM. Still for that read-out and setting: the result for B8 reads 0.0294 nM; that for B9, 0.0763 nM. Take B10: the Kd was 0.0386 nM. On the same count and under the same terms, the result for B11 reads 0.0403 nM; that for B12, 0.0398 nM; that for B13, 0.0398 nM.

Turning to B14, the Kd came to 0.0361 nM.

B15: binding was put at a Kd of 0.0408 nM. B16 yielded a Kd of 0.0533 nM.

The target in a further experiment is wild type tau (human). The experiment is described as follows: ELISA.
Sequence of wild type tau (human) (P10636 other isoform, or with tags, fused parts or gaps): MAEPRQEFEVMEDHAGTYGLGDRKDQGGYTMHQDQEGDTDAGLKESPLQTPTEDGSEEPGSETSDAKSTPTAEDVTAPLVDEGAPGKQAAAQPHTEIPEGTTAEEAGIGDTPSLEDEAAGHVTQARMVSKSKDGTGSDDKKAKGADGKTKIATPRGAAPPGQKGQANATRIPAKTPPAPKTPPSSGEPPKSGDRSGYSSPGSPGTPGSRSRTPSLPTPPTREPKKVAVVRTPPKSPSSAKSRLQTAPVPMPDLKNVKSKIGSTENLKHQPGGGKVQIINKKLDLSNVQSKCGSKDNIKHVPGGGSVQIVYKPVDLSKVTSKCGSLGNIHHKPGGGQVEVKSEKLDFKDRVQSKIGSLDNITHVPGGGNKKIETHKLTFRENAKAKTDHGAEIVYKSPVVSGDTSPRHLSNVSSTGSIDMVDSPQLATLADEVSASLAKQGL
B17: the binding result is given as “no binding”. B18: the binding result is reported as “no binding”. B19: the binding result is listed as “no binding”. Same read-out and setting: the result for B20 reads “no binding”; that for B21, “no binding”; that for B22, “no binding”. With B23, the binding result is reported as “no binding”. For B24, the binding result is “no binding”. As to B25, the binding result was “no binding”. Consider B26, for which the binding result is reported as “no binding”.

Consider B27, for which the binding result was “no binding”.

The next experiment deals with T2, ePHF. The experiment is described as follows: ELISA. This is another data set of the same source.
Regarding B28, the EC50 came to 0.11 nM.
